Patent US11707511B2, “Vaccine compositions and methods of using the same” (The Board of Supervisors of Louisiana State University and …, priority 2017, dated 2023)

How the values were obtained:
[1] = system: C. tropicalis ATCC 28775; assay: Passive transfer of mAbs, neutropenic mouse model of disseminated candidiasis by C. tropicalis; type: in vivo; conditions: for Protection against C. tropicalis / Protection against C. tropicalis (grade word): Table 6, neutropenic BALB/c mice, mAb i.p. 4 h before 1×10^7 C. tropicalis i.v.; for Protection against Candida spp in mouse model: Against C. tropicalis / Protection against Candida spp in mouse model: Against C. tropicalis (grade word): Table 9
Excerpt: (§1) Induction of neutropenia. Although C. albicans remains the dominant disease-causing pathogen of this genus, rates of infections caused by non-albicans Candida (NAC) species are increasing. Among these Candida species, only C. albicans is pathogenic in the normal mouse model. To test vaccine and mAbs against non-albicans Candida spp, we have developed neutropenic murine models of disseminated infection by C. glabrata, C. tropicalis, and C. parapsilosis. Before challenge, BLAB/c mice were made neutropenic by intraperitoneal receipt of a 200 mg/kg dose of cyclophosphamide (CY; Sigma-Aldrich) at day −3. The i.p. injection (150 mg/kg) is repeated every 10 days after infection (i.e., at days 10, 20, 30, and 40 post-infection) in order to maintain low neutrophil counts for the entire experimental procedure. […] To evaluate leukocytopenia in these mice, blood samples were collected from tail veins 3 days after each CY or saline injection (n=10 in each group). Total leukocyte and differential cell counts were determined on a hemocytometer and by Wright-Giemsa staining. Body weights of the mice were also measured and compared for 14 days after the first CY or saline injection (n=10 in each group).
(§2) Fungal challenge dose and assessment ofprotection. Although C. albicans remains the dominant disease-causing pathogen of this genus, rates of infections caused by non-albicans Candida (NAC) species are increasing (18). Among these Candida species, only C. albicans is pathogenic in the normal mouse model (19,20). We have developed neutropenic murine models of disseminated infection by C. glabrata, C. tropicalis, and C. parapsilosis. […] In details, mice of different experimental groups (five mice per group) were intravenously infected with 5×10^6 viable C. parapsilosis ATCC MYA-4646 (A), 1×108 C. glabrata ATCC 2001 cells (B) and 1×107 C. tropicalis ATCC 28775 cells (C) in 0.1 ml DPBS. As controls, immunocompetent mice were challenged with the same dose of each Candida strain tested.
(§3) Passive transfer of MAbs by intraperitoneal (i.p.) route. The preventive effect of peptide-specific mAbs listed in Table 3 and Table 4 in naïve mice was examined by passive transfer experiments. Each mAb was appropriately diluted in DPBS to give a 40,000-100,000 ELISA titer against each corresponding specific peptide coated on the plate. For testing, mice received 0.5 ml of each mAb or 1 ml of two mAbs in combination (0.5 ml of each) intraperitoneally. Table 6 and Table 7 have listed all the peptide-specific mAb combinations that have been tested, as well as the protective efficacy of each mAb cocktail as compared to single mAb treatment. The negative control materials tested in mice were single mAb or DPBS. Control mice received 0.5 ml of the DPBS diluents or single mAb treatment. For each condition, 6- to 8-week-old female BALB/c mice (NCI) were given 0.5 ml of test mAb, or 1 ml two mAb cocktails or control materials intraperitoneally, followed 4 h later by 0.1 ml intravenously of defined lethal dose of yeast cells per milliliter of DPBS. Mice were divided into groups with five mice each and three independent experiments were carried out. In some experiments, mice were given the same dose of mAbs or control materials on every other day post-challenge for two weeks, as compared to the protective efficacy of mAb in combinations. All mice were sacrificed on day 50. For animal groups that were challenged non-albicans candida species, determined optimal challenge doses were applied for each candida strain.
(§4) The preventive effect of each universal peptide-specific mAb was examined by passive transfer experiments. Each mAb was appropriately diluted in DPBS (0.2 μg/μl) to give a 100,000 ELISA titer against each universal peptide coated on the plate. For testing, 5 mice of each tested group received 0.5 ml of each mAb intraperitoneally. The negative control materials tested in mice were mAbs absorbed with C. albicans yeast cells (3153A) and DPBS. […]

[2] = system: C. glabrata ATCC 2001; assay: Passive transfer of mAbs, neutropenic mouse model of disseminated candidiasis by C. glabrata; type: in vivo; conditions: for Protection against C. glabrata / Protection against C. glabrata (grade word): Table 6, neutropenic BALB/c mice, mAb i.p. 4 h before 1×10^8 C. glabrata i.v.; for Protection against Candida spp in mouse model: Against C. glabrata / Protection against Candida spp in mouse model: Against C. glabrata (grade word): Table 9
Excerpt: as §1, §2, §3, §4

| Molecule | Protection against C. tropicalis [1] | Protection against C. tropicalis (grade word) [1] | Protection against Candida spp in mouse model: Against C. tropicalis [1] | Protection against Candida spp in mouse model: Against C. tropicalis (grade word) [1] | Protection against C. glabrata [2] | Protection against C. glabrata (grade word) [2] | Protection against Candida spp in mouse model: Against C. glabrata [2] | Protection against Candida spp in mouse model: Against C. glabrata (grade word) [2] |
| --- | --- | --- | --- | --- | --- | --- | --- | --- |
| 1D4H5: IgG1 mAb of hybridoma 1D4H5, specific for GPV-M1; VH SEQ ID NO: 64, VL SEQ ID NO: 66 (antibody, V domains shown) VH: MYLGLNCVFIVFLLKGVQSEVKLEESGGGLVQPGGSMKLSCVASGFTFSNYWMNWVRQSPEKGLEWVAEIRLKSNNYATHYAESVKGRFTISSDDSKSSVYLQMNNLRAEDTGIYYCSTGNYWGQGTTLTVSS VL: MDFQMQIISLLLISVTVIVSNGEIVLTQSPTTMAASPGEKITITCSASSTISSNYLHWYQQKPGFSPKLLIYRTSNLASGVPARFSGSGSGTSYSLTIGTMEAEDVATYYCQQGSTISRTFGSGTKLEIK | (60-80%) | High | (60-80%) | High | (70-90%) | High | (70-90%) | High |
| 10E7E2: IgG1 mAb of hybridoma 10E7E2, specific for GPV-P3; VH SEQ ID NO: 72, VL SEQ ID NO: 74 (antibody, V domains shown) VH: QVQLKQSGPGLVQPSQSLSITCTVSGFSLTSYGVHWVRQSPGKGLEWLGVIWSGGTTDYNAAFISRLSISKDNSKSQVFFKMNSLQANDTAIYYCARGGHRGFAYWGQGTLVTVSA VL: DIVMTQSHKFMSTSVGDRVSITCKASQDVGTAVAWYQQKPGQSPKLLIYWASTRHTGVPDRFTGSGSGTDFTLTISNVQSEDLADYFCQQYSSYPLTFGAGTKLELK | (60-70%) | High | (60-70%) | High | (60-70%) | High | (60-70%) | High |
